Target: Rabbit polymeric immunoglobulin receptor (pIgR), intact, expressed in transfected MDCK cells (pWe) (rabbit) (UniProt P01832)
Assay: cell-based or functional assay

Chain of UniProt P01832 (P01832 19-773): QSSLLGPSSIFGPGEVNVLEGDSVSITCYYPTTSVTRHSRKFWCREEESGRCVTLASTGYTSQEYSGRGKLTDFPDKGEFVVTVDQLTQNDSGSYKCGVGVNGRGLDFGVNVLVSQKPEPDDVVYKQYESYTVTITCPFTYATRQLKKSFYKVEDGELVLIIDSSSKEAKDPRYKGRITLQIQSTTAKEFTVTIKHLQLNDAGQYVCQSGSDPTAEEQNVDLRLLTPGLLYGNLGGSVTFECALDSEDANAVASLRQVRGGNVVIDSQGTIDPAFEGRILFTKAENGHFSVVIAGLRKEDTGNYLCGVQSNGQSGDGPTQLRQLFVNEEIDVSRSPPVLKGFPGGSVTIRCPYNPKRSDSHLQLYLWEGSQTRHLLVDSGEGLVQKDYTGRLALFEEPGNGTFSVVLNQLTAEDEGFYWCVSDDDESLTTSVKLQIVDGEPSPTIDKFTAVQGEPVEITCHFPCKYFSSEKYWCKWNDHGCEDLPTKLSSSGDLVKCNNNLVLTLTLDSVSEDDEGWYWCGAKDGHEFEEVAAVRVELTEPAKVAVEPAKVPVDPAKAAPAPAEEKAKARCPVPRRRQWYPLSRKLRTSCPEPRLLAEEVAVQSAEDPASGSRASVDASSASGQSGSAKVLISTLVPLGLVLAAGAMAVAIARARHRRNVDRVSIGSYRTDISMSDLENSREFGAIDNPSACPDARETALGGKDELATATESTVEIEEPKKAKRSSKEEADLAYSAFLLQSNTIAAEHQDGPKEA

percent of ligand transcytosed from the apical to the basolateral surface: 5 to 6%
Substance: Radio-iodinated IgA (antibody)

From patent US6340743
